The results in this text go back to article PMC12691637.

The target of this assay is cytosolic fragment of the McpN chemoreceptor (McpN_CF) (Pseudomonas aeruginosa PAO1). The experiment in a line: ITC; VP microcalorimeter, 25°C; 3 mM Tris, 3 mM PIPES, 3 mM MES, 5 mM 2-mercaptoethanol, pH 8.0; 10 µM cytosolic fragment in the sample cell titrated with 12.8 µL aliquots of 113 µM CheV or CheV D238E; 'Two Binding Sites' model.

As for “CheV D238E (phosphorylation mimic) of Pseudomonas aeruginosa PAO1 (natural protein)”, the KD of the first event (high affinity, endothermic) was 8 nM; the KD of the second event (lower affinity, exothermic) came to 3000 nM; the N of the first event was 0.5.
